Data reported in patent US20170088600A1 (published 2017).

Tests used:
[1] = target: T1, mouse TRAIL expressed on transiently transfected 293T cells (mouse, UniProt P50592 1-291); test: flow cytometry on 293T cells transfected with mouse TRAIL
T1 construct: whole, on cells; also called mTRAIL; mouse (m) TRAIL
T1 sequence (looked up): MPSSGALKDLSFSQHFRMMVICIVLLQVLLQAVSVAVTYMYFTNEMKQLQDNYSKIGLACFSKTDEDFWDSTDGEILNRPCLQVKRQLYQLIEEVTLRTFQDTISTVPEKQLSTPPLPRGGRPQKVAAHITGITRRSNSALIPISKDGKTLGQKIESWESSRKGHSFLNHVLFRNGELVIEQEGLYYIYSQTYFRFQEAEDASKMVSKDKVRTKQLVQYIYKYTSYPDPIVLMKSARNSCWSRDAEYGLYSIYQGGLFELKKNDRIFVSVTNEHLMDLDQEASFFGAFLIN

[2] = target: T2, TRAIL (TNFSF10) ectodomain (UniProt P50591 39-281, limits assumed); test: SPR, mutant TRAIL-R2-Fc captured, TRAIL as analyte
T2 construct: extracellular domain; also called endogenous TRAIL; TRAIL ectodomain
T2 sequence (P50591 39-281 limits assumed): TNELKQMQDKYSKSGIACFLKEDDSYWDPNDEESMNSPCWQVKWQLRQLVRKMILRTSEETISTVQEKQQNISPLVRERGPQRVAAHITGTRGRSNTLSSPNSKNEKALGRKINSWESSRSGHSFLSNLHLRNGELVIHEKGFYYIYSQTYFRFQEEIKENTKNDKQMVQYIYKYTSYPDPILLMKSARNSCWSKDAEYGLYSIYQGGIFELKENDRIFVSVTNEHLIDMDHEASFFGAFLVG

B1: mouse TRAIL-R2:Fc (extracellular domain of mouse TRAIL-R2 fused to human IgG constant domain) (Fc fusion, UniProt Q9QZM4 53-180, looked up)
chain: NPAHNRPAGLQRPEESPSRGPCLAGQYLSEGNCKPCREGIDYTSHSNHSLDSCILCTVCKEDKVVETRCNITTNTVCRCKPGTFEDKDSPEICQSCSNCTDGEEELTSCTPRENRKCVSKTAWASWHK
notes: extracellular domain; also called mTRAIL-R2:Fc; not shown: printed only as the human IgG VH constant domain; subclass, limits and linker no
binding result [1]: binds

B2: TRAIL-R2-Fc K155A (Fc fusion, human, not shown: a dimerising Fc or GST)
chain: QQDLAPQQRAAPQQKRSSPSEGLCPPGHHISEDGRDCISCKYGQDYSTHWNDLLFCLRCTRCDSGEVELSPCTTTRNTVCQCEEGTFREEDSPEMCRACRTGCPRGMVKVGDCTPWSDIECVHKESGLVPRGS
notes: range 58-184
Kd [2]: 39.7 nM | koff [2]: 0.000138 s⁻¹ | kon [2]: 3480 M⁻¹ s⁻¹

B3: TRAIL-R2-Fc M152A/R154A/K155A (Fc fusion, human, not shown: a dimerising Fc or GST)
chain: QQDLAPQQRAAPQQKRSSPSEGLCPPGHHISEDGRDCISCKYGQDYSTHWNDLLFCLRCTRCDSGEVELSPCTTTRNTVCQCEEGTFREEDSPEACAACRTGCPRGMVKVGDCTPWSDIECVHKESGLVPRGS
notes: range 58-184; also called M152/R154/K155
binding result [2]: no binding

B4: TRAIL-R2-Fc P150A (Fc fusion, human, not shown: a dimerising Fc or GST)
chain: QQDLAPQQRAAPQQKRSSPSEGLCPPGHHISEDGRDCISCKYGQDYSTHWNDLLFCLRCTRCDSGEVELSPCTTTRNTVCQCEEGTFREEDSAEMCRKCRTGCPRGMVKVGDCTPWSDIECVHKESGLVPRGS
notes: range 58-184
Kd [2]: 4.29 nM | koff [2]: 9.02e-06 s⁻¹ | kon [2]: 2100 M⁻¹ s⁻¹

B5: TRAIL-R2-Fc E151A (Fc fusion, human, not shown: a dimerising Fc or GST)
chain: QQDLAPQQRAAPQQKRSSPSEGLCPPGHHISEDGRDCISCKYGQDYSTHWNDLLFCLRCTRCDSGEVELSPCTTTRNTVCQCEEGTFREEDSPAMCRKCRTGCPRGMVKVGDCTPWSDIECVHKESGLVPRGS
notes: range 58-184
binding result [2]: no binding (tested: up to 1 µM ligand)

B6: TRAIL-R2-Fc V167A (Fc fusion, human, not shown: a dimerising Fc or GST)
chain: QQDLAPQQRAAPQQKRSSPSEGLCPPGHHISEDGRDCISCKYGQDYSTHWNDLLFCLRCTRCDSGEVELSPCTTTRNTVCQCEEGTFREEDSPEMCRKCRTGCPRGMVKAGDCTPWSDIECVHKESGLVPRGS
notes: range 58-184
Kd [2]: 4.35 nM | koff [2]: 9.57e-06 s⁻¹ | kon [2]: 2200 M⁻¹ s⁻¹

B7: TRAIL-R2-Fc Y103A/N134A (Fc fusion, human, not shown: a dimerising Fc or GST)
chain: QQDLAPQQRAAPQQKRSSPSEGLCPPGHHISEDGRDCISCKYGQDASTHWNDLLFCLRCTRCDSGEVELSPCTTTRATVCQCEEGTFREEDSPEMCRKCRTGCPRGMVKVGDCTPWSDIECVHKESGLVPRGS
notes: range 58-184; also called Y103/N134
binding result [2]: no binding

B8: TRAIL-R2-Fc M152A (Fc fusion, human, not shown: a dimerising Fc or GST)
chain: QQDLAPQQRAAPQQKRSSPSEGLCPPGHHISEDGRDCISCKYGQDYSTHWNDLLFCLRCTRCDSGEVELSPCTTTRNTVCQCEEGTFREEDSPEACRKCRTGCPRGMVKVGDCTPWSDIECVHKESGLVPRGS
notes: range 58-184
Kd [2]: 202 nM | koff [2]: 0.000678 s⁻¹ | kon [2]: 3350 M⁻¹ s⁻¹

B9: TRAIL-R2-Fc D148A (Fc fusion, human, not shown: a dimerising Fc or GST)
chain: QQDLAPQQRAAPQQKRSSPSEGLCPPGHHISEDGRDCISCKYGQDYSTHWNDLLFCLRCTRCDSGEVELSPCTTTRNTVCQCEEGTFREEASPEMCRKCRTGCPRGMVKVGDCTPWSDIECVHKESGLVPRGS
notes: range 58-184
Kd [2]: 4.48 nM | koff [2]: 3.58e-05 s⁻¹ | kon [2]: 8000 M⁻¹ s⁻¹

B10: TRAIL-R2-Fc L110A/L114A (Fc fusion, human, not shown: a dimerising Fc or GST)
chain: QQDLAPQQRAAPQQKRSSPSEGLCPPGHHISEDGRDCISCKYGQDYSTHWNDALFCARCTRCDSGEVELSPCTTTRNTVCQCEEGTFREEDSPEMCRKCRTGCPRGMVKVGDCTPWSDIECVHKESGLVPRGS
notes: range 58-184; also called L110/L114
binding result [2]: no binding

B11: TRAIL-R2-Fc F112A (Fc fusion, human, not shown: a dimerising Fc or GST)
chain: QQDLAPQQRAAPQQKRSSPSEGLCPPGHHISEDGRDCISCKYGQDYSTHWNDLLACLRCTRCDSGEVELSPCTTTRNTVCQCEEGTFREEDSPEMCRKCRTGCPRGMVKVGDCTPWSDIECVHKESGLVPRGS
notes: range 58-184
Kd [2]: 3.94 nM | koff [2]: 9.86e-06 s⁻¹ | kon [2]: 2500 M⁻¹ s⁻¹

B12: TRAIL-R2-Fc Y103A/R133A (Fc fusion, human, not shown: a dimerising Fc or GST)
chain: QQDLAPQQRAAPQQKRSSPSEGLCPPGHHISEDGRDCISCKYGQDASTHWNDLLFCLRCTRCDSGEVELSPCTTTANTVCQCEEGTFREEDSPEMCRKCRTGCPRGMVKVGDCTPWSDIECVHKESGLVPRGS
notes: range 58-184; also called Y103/R133
binding result [2]: no binding
